Measurements as given in patent publication US11339383B2, “G proteins” (HEPTARES THERAPEUTICS LIMITED, priority 2016, dated 2022).

Assays:
β1AR-84 [1] = target: T1, β1AR-84 (Meleagris gallopavo, UniProt P07700, C116L/C358A/D322K/DEL244-271/F327A/F338M/M44C/M90V/V103C); format: binding, turkey; details: membranes
T1 construct: His6 (C); made in house; host or cells: Trichoplusia ni (High Five) insect cells, BaculoGold baculovirus

β1AR-84 [2] = target: T1, β1AR-84; assay: Saturation binding assay, ^3H-DHA binding to β1AR-84; design: species or system turkey; details: insect cell membranes, 20° C.
Protocol: FIG. 2. Saturation binding data for β1AR constructs. […] Data represent mean±SEM of three independent experiments. Curves shown are from a representative experiment performed in duplicate.
Insect cells expressing β1AR were resuspended in 1 ml of assay buffer (20 mM HEPES, pH 7.5, 100 mM NaCl), supplemented with Complete EDTA-free protease inhibitors (Roche). Cells were broken by 10 passages through a bent 26 G needle. Cell debris was removed by centrifugation (3000 g for 5 mins at 4° C.). The supernatant was diluted and 2×0.96 ml aliquots taken for each sample. Alprenolol (120 μl) was added to the negative sample (1 mM final concentration) and assay buffer (120 μl) was added to the positive sample. Samples were aliquoted (12×108 μl) into a PCR plate. [^3H]-dihydroalprenolol (12 μl) was added to each well (to give final concentrations in the range: 2.5 nM-2.56 μM). Samples were mixed and incubated at 20° C. for 2 h. Samples (2×50 μl duplicates) were vacuum filtered through 96-well glass fibre filter plates (Merck Millipore), pre-soaked with PEI (0.1%). Each well was washed with assay buffer (3×200 μl). Filters were dried, punched into scintillation vials and 4 ml Ultima Gold scintillant (Perkin Elmer) was added. Radioactivity was quantified by scintillation counting (1 min per sample) using a Tri-Carb counter (Perkin Elmer). Data for negative samples were subtracted from positive samples. […]

[3] = Thermostability of GDP-bound mini G proteins by differential scanning fluorimetry (DSF); format: physicochemical; details: mini-G protein alone, GDP-bound
Protocol: SYPRO-orange (15 μl) was added from a 20× stock solution to give a final concentration of 2×. Samples were mixed and 2×50 μl aliquots (duplicates) were transferred to 0.2 ml PCR tubes (Qiagen). Thermostability measurements were performed using a Rotor-Gene Q (Qiagen). Samples were equilibrated for 90 s at 25° C. before ramping from 25 to 99° C. at 4 s/° C. The melting temperature (Tm), corresponding to the inflection point of the curve, was derived from analysis using the Rotor-Gene Q software. Tm values were calculated as the mean±SEM from three independent experiments.
(§1) For constructs see FIGS. 29 and 35-37. Expression, purification and stability measurements by differential scanning fluorimetry (DSF) of the mini-G proteins as well as the non-lipidated Gβ1γ2 dimer, were performed following the protocols described in Example 1. The stability of mini-G proteins was also determined in detergent using native DSF (NanoTemper Prometheus). Mini-G proteins (2 mg/ml) in 50 mM HEPES pH 7.5 (KOH), 20 mM MgCl2, 50 mM NaCl, 1 μM GDP were mixed with either no detergent (control), 0.1% LMNG or 0.1% DDM. Samples were incubated on ice (minimum 30 min) prior to heating on the Prometheus (20% excitation, 15° C.-85° C., rate of 2.0° C./min) and the onset of scattering determined.

[4] = Stability of mini-G proteins in detergent by native DSF; format: physicochemical; details: 2 mg/ml, onset of scattering
Protocol: as §1

A2AR = A2AR (Homo sapiens, UniProt P29274, N154A); assay: Thermostability assay of ^3H-NECA-bound A2AR
Chain of A2AR (P29274 1-317 N154A): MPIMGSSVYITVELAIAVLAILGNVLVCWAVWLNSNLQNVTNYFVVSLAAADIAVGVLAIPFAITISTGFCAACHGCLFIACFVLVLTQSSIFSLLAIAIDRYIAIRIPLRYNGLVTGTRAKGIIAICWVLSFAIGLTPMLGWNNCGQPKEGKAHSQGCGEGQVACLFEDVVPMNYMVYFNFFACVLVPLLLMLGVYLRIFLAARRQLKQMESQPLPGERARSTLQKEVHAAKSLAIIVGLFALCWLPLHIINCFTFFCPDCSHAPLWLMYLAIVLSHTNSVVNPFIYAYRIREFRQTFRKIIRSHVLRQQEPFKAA
Protocol: The samples were incubated at room temperature for 1 h, then chilled on ice for 30 min. DDM, DM or OG were added to a final concentration of 0.1%, 0.13% or 0.8%, respectively, and samples were incubated on ice for 1 h. Cell debris was removed by centrifugation for 5 min at 20,000×g and the supernatant was aliquoted into PCR strips. Samples were heated to the desired temperature for exactly 30 min, then quenched on ice for 30 min. Samples (50 μl) were loaded onto gel filtration resin packed into a 96-well filter plate (Millipore), which was centrifuged to separate receptor-bound from free radioligand. […] Data were analyzed by nonlinear regression using GraphPad Prism software. Apparent Tm values were derived from sigmoidal dose-response analysis. Results represent the mean±SEM of two independent experiments, performed in duplicate.
Samples were heated to the desired temperature for exactly 30 min, then quenched on ice for 30 min. Samples (50 μl) were loaded onto gel-filtration resin (Toyopearl HW-40F) packed into a 96-well filter plate (Millipore), which was centrifuged to separate receptor-bound from free radioligand [28]. […] Data were analysed by nonlinear regression using GraphPad Prism software. Apparent Tm values were derived from sigmoidal dose-response analysis performed by non-liner regression. Results represent the mean±SEM of two independent experiments, performed in duplicate.

NTSR1 = target: T2, NTSR1 (Rattus norvegicus, UniProt P20789); assay: Thermostability assay of ^3H-NTS-bound NTSR1; format: biochemical; details: DDM-solubilized
T2 construct: the wild-type rat NTSR1 (residues 43-396) and a C-terminal His10 tag; hemagglutinin signal peptide (N); Flag (N); His10 (C); made in house; host or cells: Trichoplusia ni insect cells, baculovirus (modified pFastBac1)
T2 sequence (P20789 43-396): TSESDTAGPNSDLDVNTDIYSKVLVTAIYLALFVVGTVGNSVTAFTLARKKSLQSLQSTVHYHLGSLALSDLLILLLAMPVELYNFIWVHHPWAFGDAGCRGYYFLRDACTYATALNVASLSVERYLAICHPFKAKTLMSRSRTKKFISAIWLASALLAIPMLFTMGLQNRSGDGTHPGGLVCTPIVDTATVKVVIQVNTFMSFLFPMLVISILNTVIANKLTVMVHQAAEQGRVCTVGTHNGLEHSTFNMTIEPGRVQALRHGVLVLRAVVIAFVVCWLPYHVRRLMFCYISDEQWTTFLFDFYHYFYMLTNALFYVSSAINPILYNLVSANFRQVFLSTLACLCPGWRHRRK
Protocol: The samples were placed on a rotating mixer at 4° C. for 1 hour. Cell debris and non-solubilized material were removed by ultracentrifugation (152,800×g, 4° C., 30 min), and the supernatant containing detergent-solubilized NTSR1 was used to test for thermal stability in the presence of NTS and mini-G proteins. For thermal denaturation curves, the supernatants were diluted 6.67-fold into assay buffer (50 mM TrisHCl pH 7.4, 100 mM NaCl, 1 mM MgCl2) containing 22.5 μM mini-G protein and 10 nM ^3H-NTS and incubated for 1 hour on ice. After addition of apyrase (0.25 units/ml, NEB), the sample was placed on ice for an additional 30 min. Samples (120 μl aliquots) were exposed to different temperatures between 0° C. and 60° C. for 30 min and placed on ice. […] Control reactions on ice were recorded at the start and at the end of each denaturation experiment. The percentage of activity remaining after heat exposure was determined with respect to the unheated control. Data were analyzed by nonlinear regression using a Boltzmann sigmoidal equation in the Prism software (GraphPad).

T1 sequence (P07700 other isoform, or with tags, fused parts or gaps M44C/M90V/V103C/C116L/DEL244-271/D322K/F327A/F338M/C358A): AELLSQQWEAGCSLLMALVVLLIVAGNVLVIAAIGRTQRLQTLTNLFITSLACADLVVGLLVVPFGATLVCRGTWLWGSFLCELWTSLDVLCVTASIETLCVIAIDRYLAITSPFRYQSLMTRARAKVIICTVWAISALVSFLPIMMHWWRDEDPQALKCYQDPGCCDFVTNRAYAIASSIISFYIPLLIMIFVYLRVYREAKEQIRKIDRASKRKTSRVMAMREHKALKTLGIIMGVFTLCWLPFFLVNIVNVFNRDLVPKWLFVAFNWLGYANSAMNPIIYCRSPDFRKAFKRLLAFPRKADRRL

| Molecule | Stability measured by DSF [3] | Stability in detergent measured by native DSF, 0.1% DDM [4] | Stability in detergent measured by native DSF, 0.1% LMNG [4] | Stability in detergent measured by native DSF, No detergent [4] | coupling of mini-Gs/q chimera to A2AR (thermostability assay and SEC) (A2AR) | other results |
| --- | --- | --- | --- | --- | --- | --- |
| Gs: non-lipidated Gs (Gαsβ1γ2) heterotrimer [reference compound] | – | – | – | – | – | shift of isoprenaline Ki of β1AR-84 in response to binding partner, 20° C. (β1AR-84 [1]; relative to uncoupled […]): 9.6 fold |
| CCCc1ccccc1OCC(O)CNC(C)C (stereo not shown) [^3H-DHA, ^3H-dihydroalprenolol] | – | – | – | – | – | Kd (β1AR-84 [2]): 20 ± 3 nM |
| Mini Gs393 (protein, N-terminal His tag, TEV site; MINI GS393) MGHHHHHHENLYFQGIEKQLQKDKQVYRATHRLLLLGADNSGKSTIVKQMRILHGGSGGSGGTSGIFETKFQVDKVNFHMFDVGGQRDERRKWIQCFNDVTAIIFVVDSSDYNRLQEALNDFKSIWNNRWLRTISVILFLNKQDLLAEKVLAGKSKIEDYFPEFARYTTPEDATPEPGEDPRVTRAKYFIRDEFLRISTASGDGRHYCYPHFTCAVDTENARRIFNDCRDIIQRMHLRQYELL | 65.3 ± 0.0 °C | 39.1 ± 0.0 °C | 44.9 ± 0.2 °C | 47.7 ± 0.2 °C | – | GTP-mediated dissociation of β1AR-84 complexes (β1AR-84 [1]; 0.25 mM GTPγS): completely resistant |
| Mini-Gs/i143: mini-Gs with 9 α5 helix mutations changing coupling specificity to Gi1; SEQ ID NO:111 (protein, Mini-Gs/i143) MGHHHHHHENLYFQGIEKQLQKDKQVYRATHRLLLLGADNSGKSTIVKQMRILHGGSGGSGGTSGIFETKFQVDKVNFHMFDVGGQRDERRKWIQCFNDVTAIIFVVDSSDYNRLQEALNDFKSIWNNRWLRTISVILFLNKQDLLAEKVLAGKSKIEDYFPEFARYTTPEDATPEPGEDPRVTRAKYFIRDEFLRISTASGDGRHYCYPHFTCAVDTENARRIFNDVTDIIIKMNLRDCGLF | 69.0 ± 0.1 °C | 35.9 ± 0.1 °C | 41.1 ± 0.1 °C | 44.8 ± 0.0 °C | – | – |
| Mini-Gs/q57: mini-Gs with five C-terminal residues changed to Gαq (Q390E, E392N, L394V) (protein, Mini-Gs/q57) MGHHHHHHENLYFQGIEKQLQKDKQVYRATHRLLLLGADNSGKSTIVKQMRILHGGSGGSGGTSGIFETKFQVDKVNFHMFDVGGQRDERRKWIQCFNDVTAIIFVVDSSDYNRLQEALNDFKSIWNNRWLRTISVILFLNKQDLLAEKVLAGKSKIEDYFPEFARYTTPEDATPEPGEDPRVTRAKYFIRDEFLRISTASGDGRHYCYPHFTCAVDTENARRIFNDCRDIIQRMHLREYNLV | – | – | – | – | still observed | – |
| Mini Gs77 (protein, MINI GS77) MGHHHHHHANKKIEKQLQKDKQVYRATHRLLLLGAGESGKSTIVKQMRILHVNGGGDQDALRSRVLTSGIFETKFQVDKVNFHMFDVGGQRDERRKWIQCFNDVTAIIFVVASSSYNMVIREDNQTNRLQEALNLFKSIWNNRWLRTISVILFLNKQDLLAEKVLAGKSKIEDYFPEFARYTTPEDATPEPGEDPRVTRAKYFIRDEFLRISTASGDGRHYCYPHFTCAVDTENIRRVFNDCRDIIQRMHLRQYELL | – | – | – | – | – | shift of isoprenaline Ki of β1AR-84 in response to binding partner, 4° C. (β1AR-84 [1]; relative to uncoupled […]): 21 fold |
| Mini-Gs/q70: mini-Gs with R380K Q384L R385Q H387N Q390E E392N L394V (protein) GIEKQLQKDKQVYRATHRLLLLGADNSGKSTIVKQMRILHGGSGGSGGTSGIFETKFQVDKVNFHMFDVGGQRDERRKWIQCFNDVTAIIFVVDSSDYNRLQEALNDFKSIWNNRWLRTISVILFLNKQDLLAEKVLAGKSKIEDYFPEFARYTTPEDATPEPGEDPRVTRAKYFIRDEFLRISTASGDGRHYCYPHFTCAVDTENARRIFNDCKDIILQMNLREYNLV | 67.2 ± 0.4 °C | 36.2 ± 0.1 °C | 44.2 ± 0.2 °C | 47.2 ± 0.3 °C | no binding | – |
| Mini-Gs/q58: mini-Gs with final 19 residues of α5 helix changed to those in Gαq (13 mutations) (protein, Mini-Gs/q58) MGHHHHHHENLYFQGIEKQLQKDKQVYRATHRLLLLGADNSGKSTIVKQMRILHGGSGGSGGTSGIFETKFQVDKVNFHMFDVGGQRDERRKWIQCFNDVTAIIFVVDSSDYNRLQEALNDFKSIWNNRWLRTISVILFLNKQDLLAEKVLAGKSKIEDYFPEFARYTTPEDATPEPGEDPRVTRAKYFIRDEFLRISTASGDGRHYCYPHFTCAVDTENARRIFAAVKDTILQLNLKEYNLV | – | – | – | – | did not couple | shift in the thermostability of NTSR1 (NTSR1): no significant shift |
| Mini-G128: mini-G protein of G12, construct 8; SEQ ID NO:114 (protein, Mini-G128) MGHHHHHHENLYFQGIDALLARERRAVRRLVKILLLGADNSGKSTFLKQMRIIHGGSGGSGGTKGIVEHDFVIKKIPFKMVDVGGQRSQRQKWFQCFDGITSILFMVDSSDYNRLVESMNDFETIVNNKLFFNVSIILFLNKMDLLVEKVKTVSIKKHFPDFRGDPHRLEDVQRYLVQCFDRKRRNRSKPLFHHFTTAIDTENARFIFHAVKDTILQENLKDIMLQ | 73 °C | 41.2 ± 0.2 °C | 46.0 ± 0.1 °C | 50.3 ± 0.1 °C | – | Stability measured by DSF ([3]; listed as Gl2 8): 72.6 ± 0.3 °C |
